Assay in all cases: SPR; BIAcoreX; synthetic SBP peptide thiol-coupled by its N-terminal cysteine to a CM5 chip, streptavidin variant as analyte; blank flow cell as reference
Common to all, as to conditions: both partners purified

For assay [1], the target named is T1, SAVSBPM18 engineered streptavidin (S27A, G48T) (UniProt P22629 25-183, S27A | G48T).
T1 construct: streptavidin with the double mutation S27A, G48T; Secreted by means of the B. subtilis levansucrase (SacB) signal peptide; also called streptavidin SAVSBPM18; source: B. subtilis WB800[pSAVSBPM18], secreted, purified (biotin-agarose)

The target of assay [2] is T2, SAVSBPM12 streptavidin mutein (G48T) (UniProt P22629 25-183, G48T).
T2 construct: streptavidin with the mutation G48T; Secreted by means of the SacB signal peptide; Its oligomeric state was not measured; also called G48T streptavidin mutein; source: B. subtilis WB800[pSAVSBPM12], secreted, purified (biotin-agarose), denatured and renatured, then iminobiotin-agarose

Assay [3] has as its target T3, wild-type streptavidin (UniProt P22629 25-183).
T3 construct: wild-type streptavidin, commercial; also called wt SAV; wt streptavidin; source: bought: Sigma Canada

This is an account of results in PMC3712923, “Structure-Guided Design of an Engineered Streptavidin with Reusability to Purify Streptavidin-Binding Peptide Tagged Proteins or Biotinylated Proteins” (PLoS ONE, 2013).

By Kd is commonly meant the concentration at which binding is half-saturated. High values mean weaker binding, low ones tighter binding. The term koff denotes the first-order rate constant of dissociation. A word on the kon: it is the rate constant with which the complex forms.

T3 sequence (P22629 25-183): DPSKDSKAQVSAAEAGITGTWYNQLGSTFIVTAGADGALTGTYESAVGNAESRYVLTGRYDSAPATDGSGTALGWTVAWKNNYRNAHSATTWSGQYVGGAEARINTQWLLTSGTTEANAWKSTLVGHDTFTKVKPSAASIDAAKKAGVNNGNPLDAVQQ
T2 sequence (P22629 25-183 G72T): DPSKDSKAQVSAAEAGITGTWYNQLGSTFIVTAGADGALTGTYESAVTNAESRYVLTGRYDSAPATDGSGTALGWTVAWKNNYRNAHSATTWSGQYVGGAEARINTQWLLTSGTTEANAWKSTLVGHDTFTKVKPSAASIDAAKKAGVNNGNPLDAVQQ
T1 sequence (P22629 25-183 S51A/G72T): as the sequence (P22629 25-183 G72T) above, with S27A counted along it

B1: synthetic 59-amino acid peptide with the full length SBP tag (peptide)
peptide: CGGGGSTSGGSTSGGSTSGGGMDEKTTGWRGGHVVEGLAGELEQLRARLEHHPQGQREP
notes: N-terminal cysteine for thiol coupling to the CM5 chip, then the 20-amino-acid glycine-rich linker; the limits are worked out as 1 Cys + 20 linker + 38 SBP = 59; also called SBP tag (peptide); synthetic SBP tag; source: synthetic peptide (Peptide 2.0 Inc.)
B1: in assay [1], the dissociation constant (Kd) was 7.67 nM, the koff amounted to 0.000821 s⁻¹ and the kon came to 107000 M⁻¹ s⁻¹. In assay [2], this molecule showed an equilibrium dissociation constant (Kd) of 1.99 nM, a koff of 0.00056 s⁻¹ and a kon of 281000 M⁻¹ s⁻¹. In assay [3], this molecule registered a Kd of 1.65 nM, a koff of 0.000496 s⁻¹ and a kon of 300000 M⁻¹ s⁻¹.
